# Measurements reported in patent US20230340054A1.
# Molecular target: IL-2 receptor on the cell surface (high and intermediate affinity receptors on human PBMC subsets)
# Experiment: cell-based or functional assay
Substance,pSTAT5α levels in CD4+ cells,pSTAT5α levels in CD8+ cells
IgG fusion IL-2 mutein D20T,1.46,1.7
IgG fusion IL-2 mutein D84E,1.61,0.957
IgG fusion IL-2 mutein D84S,1.2,1.05
IgG fusion IL-2 mutein D109R,1.77,1.27
IgG fusion IL-2 mutein E15D,1.09,1.01
IgG fusion IL-2 mutein E15T,3.06,1.79
IgG fusion IL-2 mutein E61W,1.3,1.18
IgG fusion IL-2 mutein E68Q,2,1.4
IgG fusion IL-2 mutein E68R,2.36,1.22
IgG fusion IL-2 mutein E68W,1.96,0.997
IgG fusion IL-2 mutein E68Y,2.6,1.28
IgG fusion IL-2 mutein E95Q,1.56,1.05
IgG fusion IL-2 mutein F42M,1.98,1.18
IgG fusion IL-2 mutein H16K,1.05,1.09
IgG fusion IL-2 mutein I92F,1.77,1.2
IgG fusion IL-2 mutein I92V,0.981,1.08
IgG fusion IL-2 mutein I92W,1.11,0.986
IgG fusion IL-2 mutein I92Y,1.94,1.12
IgG fusion IL-2 mutein K35T,2.39,1.19
IgG fusion IL-2 mutein K48I,0.944,0.868

Substance,pSTAT5α levels in CD4+ cells,pSTAT5α levels in CD8+ cells
IgG fusion IL-2 mutein K48S,2.23,1.16
IgG fusion IL-2 mutein K48V,1.12,1.18
IgG fusion IL-2 mutein L19F,1.49,1.06
IgG fusion IL-2 mutein L19V,1.31,0.953
IgG fusion IL-2 mutein L72F,1.65,0.939
IgG fusion IL-2 mutein M23I,1.83,1.16
IgG fusion IL-2 mutein M23L,1.91,1.05
IgG fusion IL-2 mutein M104H,1.01,0.989
IgG fusion IL-2 mutein M104I,1.25,0.851
IgG fusion IL-2 mutein N88S,1.2,1.04
IgG fusion IL-2 mutein P34W,1.89,1.1
IgG fusion IL-2 mutein P34Y,1.11,1.29
IgG fusion IL-2 mutein P65E,1.51,1.05
IgG fusion IL-2 mutein P65K,1.59,1.31
IgG fusion IL-2 mutein P65N,1.71,1.07
IgG fusion IL-2 mutein P65R,1.67,1.15
IgG fusion IL-2 mutein S87E,1,0.825
IgG fusion IL-2 mutein T111N,1.64,1.08
IgG fusion IL-2 mutein T111S,2.47,1.24

# Continued, values first:
pSTAT5α levels in CD4+ cells,pSTAT5α levels in CD8+ cells,Substance
2.23,1.5,IgG fusion IL-2 mutein D20N
1.21,0.96,IgG fusion IL-2 mutein D84T
1.01,1.1,IgG fusion IL-2 mutein D109H
1.77,1.32,IgG fusion IL-2 mutein D109K
1.28,0.906,IgG fusion IL-2 mutein D109M
1.53,1.05,IgG fusion IL-2 mutein D109W
1.66,0.932,IgG fusion IL-2 mutein E15S
2.19,0.946,IgG fusion IL-2 mutein E68F
2.01,1.16,IgG fusion IL-2 mutein E68L
1.62,1.02,IgG fusion IL-2 mutein E95D
0.981,1.05,IgG fusion IL-2 mutein E95N
1.47,1,IgG fusion IL-2 mutein E95S
1.64,1.02,IgG fusion IL-2 mutein E95T
1.02,1.18,IgG fusion IL-2 mutein E106W
1.4,1.63,IgG fusion IL-2 mutein H16R
1.75,1.21,IgG fusion IL-2 mutein H16Y
1.24,1.16,IgG fusion IL-2 mutein K43W
2.35,1.59,IgG fusion IL-2 mutein L12I
1.64,1.03,IgG fusion IL-2 mutein L12V
1.3,1.01,IgG fusion IL-2 mutein L12Y
2.22,1.04,IgG fusion IL-2 mutein L19I
1.6,0.93,IgG fusion IL-2 mutein L72R
1.58,1.02,IgG fusion IL-2 mutein N71W
2.85,1.88,IgG fusion IL-2 mutein P34F
1.6,1.13,IgG fusion IL-2 mutein P65Q
2,1.07,IgG fusion IL-2 mutein S87T
1.9,1.14,IgG fusion IL-2 mutein T111H
1.74,1.23,IgG fusion IL-2 mutein T111M
2.1,1.28,IgG fusion IL-2 mutein T111Q
1.58,1.15,IgG fusion IL-2 mutein T111W
